Results taken from article PMC5166503 (The Journal of Cell Biology, 2016).
Like-named read-outs stand apart in the source and are kept apart here.

Experiments:
[1] = biological target: EGFP-CaMzt1 (C. albicans); test: MST
[2] = biological target: Candida albicans γ-tubulin small complex (Caγ-TuSC) (C. albicans) (UniProt Q59PZ2); test: SEC
[3] = biological target: Candida albicans γ-tubulin small complex (Caγ-TuSC) (C. albicans) (UniProt Q59PZ2); test: SEC; remark: listed apart in the source
[4] = biological target: Saccharomyces cerevisiae γ-tubulin small complex (Scγ-TuSC) (S. cerevisiae) (UniProt P38863); test: SEC
[5] = biological target: CaMzt1-EGFP (C. albicans); test: MST
[6] = biological target: Caγ-TuSC–CaMzt1 complex (preassembled, co-expressed) (C. albicans) (UniProt Q59PZ2); test: MST
[7] = biological target: EGFP-CaMzt1^D22A (C. albicans); test: MST
[8] = biological target: MOZART1-EGFP (purified) (human) (UniProt Q08AG7); test: MST
MOZART1-EGFP (purified) (human), sequence (Q08AG7 whole entry): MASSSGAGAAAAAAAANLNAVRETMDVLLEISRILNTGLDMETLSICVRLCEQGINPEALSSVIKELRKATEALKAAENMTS

[9] = biological target: T1, GST–CaSpc72-N (1–420) (C. albicans, UniProt Q5AGV5 1-420); test: SEC
T1 sequence (looked up): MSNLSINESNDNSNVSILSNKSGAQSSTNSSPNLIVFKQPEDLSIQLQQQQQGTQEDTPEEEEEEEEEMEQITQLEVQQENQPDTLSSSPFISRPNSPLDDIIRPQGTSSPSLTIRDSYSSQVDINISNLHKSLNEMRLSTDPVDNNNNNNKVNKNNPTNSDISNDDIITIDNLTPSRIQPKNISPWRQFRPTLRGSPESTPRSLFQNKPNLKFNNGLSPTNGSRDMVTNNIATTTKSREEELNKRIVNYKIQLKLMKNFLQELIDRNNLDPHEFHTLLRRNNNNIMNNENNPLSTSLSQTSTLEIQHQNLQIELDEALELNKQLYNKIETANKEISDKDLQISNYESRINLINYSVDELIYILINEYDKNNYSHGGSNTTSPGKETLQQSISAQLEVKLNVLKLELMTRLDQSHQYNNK

[10] = biological target: the molecule itself; test: SEC
[11] = biological target: Candida albicans γ-tubulin small complex (Caγ-TuSC) (C. albicans, UniProt Q59PZ2 1-871; A0A1D8PS42 1-785; O93807 1-502); test: co-purification after co-expression

Which Kd [1] does the source give for “CaSpc110^CM1 fragment (117–176 aa) (domain or fragment)” here?
Its Kd is 1420 nM.

For “Candida albicans γ-tubulin small complex (Caγ-TuSC), Q59PZ2 1-871; A0A1D8PS42 1-785; O93807 1-502”, which percent oligomeric [2] is on record?
Its percent oligomeric is 30%.

What about the percent oligomeric [3] of the same molecule?
Its percent oligomeric is 5%.

With “Saccharomyces cerevisiae γ-tubulin small complex (Scγ-TuSC), P38863 1-823; P53540 1-846; P53378 1-473” as the molecule, how does the percent oligomeric [4] read?
Its percent oligomeric is > 90%.

With “GST–CaSpc110-N (1–222) (domain or fragment)” as the molecule, how does the fold lower affinity than with EGFP-CaMzt1 [5] read?
The fold lower affinity than with EGFP-CaMzt1 was 3 fold.

And the fold higher affinity than to Caγ-TuSC [6]?
The fold higher affinity than to Caγ-TuSC was 3 fold.

And the Kd [1]?
Its Kd is 187 nM.

And the fold reduction of affinity against EGFP-CaMzt1 [7]?
Its fold reduction of affinity against EGFP-CaMzt1 is 6 fold.

And the Kd [8]?
The Kd was 489 nM.

B1: EGFP-CaMzt1 (natural protein, C. albicans, UniProt A0A1D8PMH7 1-58, looked up)
chain: MPPDPNSMIVELARLMNCVQLDETVLQLCIKLLDEGANPQQLAKHILAIKKETNSILT
Which results are given for B1?
binding result [9]: binds; stoichiometry N [10]: 3 to 4

B2: GST-CaMzt1 (natural protein, C. albicans, UniProt A0A1D8PMH7 1-58, looked up)
chain: B1 chain
How did the “stoichiometry N” value [10] turn out when B2 was run?
The value was 3 to 4.

B3: CaMzt1-3Flag (natural protein, C. albicans, UniProt A0A1D8PMH7 1-58, looked up)
chain: B1 chain
With B3 as the molecule, how does the “stoichiometry N” value [11] read?
Its value is 1.
